{"source": "patent US20100115639A1", "about": "(PIERRE FABRE MEDICAMENT, published 2010)", "key": {"[1]": {"biological_target": "c-Met receptor on A549 cells (human, UniProt P08581 25-1390)", "assay": "cell-based or functional assay"}, "[2]": {"biological_target": "T1, recombinant c-Met-Extra-Cellular Domain (ECD) fused to a human IgG1 Fc domain (R&D Systems, 358MT) (human, UniProt P08581 25-932)", "T1 construct": "extracellular domain; Bought; bivalent (dimeric) fusion, MW 129 kDa as printed; also called c-Met-Fc; c-Met-Fc-Tag His; not shown: human IgG1 Fc domain", "assay": "displacement of [125I]-HGF from immobilized c-Met-Fc (FlashPlate)"}, "[3]": {"biological_target": "C-Met-Rluc and C-Met-K1100A-YFP co-expressed in CHO stable cell lines (R. reniformis), P08581", "assay": "cell-based or functional assay"}, "[4]": {"biological_target": "T1, recombinant c-Met-Extra-Cellular Domain …", "assay": "BIAcore X, Fab as analyte on c-Met-Fc-His captured by anti-His antibody, 25°C", "protocol": "(§1) For the assay, an anti-Tag histidine capture antibody was coated on CM5 sensorchips. The running buffer was HBS-EP, the flow rate was 30 μl/min and the test was performed at 25° C. Soluble c-Met (ECD M1)2-Fc-(HHHHHH)₂ antigen was captured on the sensorchip (around 270 RU), and the antibodies to be tested were used in solution as analytes. The sensorship was regenerated using Glycine, HCl pH 1.5 buffer on both flowcells for half a minute."}, "[5]": {"biological_target": "T1, recombinant c-Met-Extra-Cellular Domain …", "assay": "BIAcore X, Fab as analyte on c-Met-Fc-His captured by anti-His antibody, 25°C; column head misprinted", "protocol": "as §1"}, "[6]": {"biological_target": "T2, recombinant SEMA domain of c-Met (UniProt P08581 27-515, limits assumed)", "T2 construct": "domain: SEMA; also called SEMA protein", "assay": "ELISA, SEMA domain coated at 3 µg/ml, hybridoma supernatants", "protocol": "The reaction is left to occur for 5 min at room temperature. The reaction is stopped by the addition of 50 μl/well of a 1 M H₂SO₄ solution and read on a plate reader at 450 nm."}}}
{"molecule": "5D5 Mab, generated by Genentech, available at the ATCC (antibody)", "values": [{"measurement": "agonist effect on c-Met phosphorylation (Mab alone, A549 cells)", "setting": "[1]", "value": 58, "unit": "%"}, {"measurement": "antagonist effect on c-Met phosphorylation in presence of HGF (A549 cells)", "setting": "[1]", "value": 39, "unit": "%"}, {"measurement": "inhibition of c-Met phosphorylation (phospho c-Met ELISA, A549 cells + HGF 100 ng/ml, antibody 30 µg/ml)", "setting": "[1]", "value": 42, "unit": "%"}]}
{"molecule": "11E1 murine monoclonal antibody (antibody, V domains shown, Used as hybridoma supernatant or purified Mab; also called MAb 11E1; CNCM I-3724) VH: QVQLQQSGAELAKPGASVKMSCKASGYTFTSYWMNWVKQRPGQGLEWIGYINPTTGSTDYNQKLKDKATLTADKSSNTAYMQLSSLTSEDSAVYYCAIGGYGSWFAYWGQGTLVTVSA VL: QIVLTQSPAIMSASPGEKVTLTCSASSSVSSTYLYWYQQKPGSSPKLWIYTTSILASGVPARFSGSGSGTSYSLTISSMETEDAASYFCHQWSSYPFTFGSGTKLDIK", "values": [{"measurement": "basal effect on c-Met phosphorylation (antibody alone, A549 cells)", "setting": "[1]", "value": "< 20", "unit": "%"}, {"measurement": "inhibition of c-Met phosphorylation (phospho c-Met ELISA, A549 cells + HGF 100 ng/ml, antibody 30 µg/ml)", "setting": "[1]", "value": 68, "unit": "%"}, {"measurement": "IC50", "setting": "[2]", "value": 20, "unit": "nM"}, {"measurement": "inhibition of dimerization (BRET signal, CHO cells)", "setting": "[3]", "value": 69, "unit": "%"}]}
{"molecule": "Fab fragment of mAb 11E1 (papain cleavage) (Fab, V domains shown, also called 11E1 Fab) VH: QVQLQQSGAELAKPGASVKMSCKASGYTFTSYWMNWVKQRPGQGLEWIGYINPTTGSTDYNQKLKDKATLTADKSSNTAYMQLSSLTSEDSAVYYCAIGGYGSWFAYWGQGTLVTVSA VL: QIVLTQSPAIMSASPGEKVTLTCSASSSVSSTYLYWYQQKPGSSPKLWIYTTSILASGVPARFSGSGSGTSYSLTISSMETEDAASYFCHQWSSYPFTFGSGTKLDIK", "values": [{"measurement": "Half-Life", "setting": "[4]", "value": 4.1, "unit": "h"}, {"measurement": "Kd", "setting": "[4]", "value": 0.0414, "unit": "nM"}, {"measurement": "kon", "setting": "[4]", "value": "1.13e+06", "unit": "M⁻¹ s⁻¹"}, {"measurement": "koff", "setting": "[5]", "value": "4.68e-05", "unit": "s⁻¹"}]}
{"molecule": "224G11 murine monoclonal antibody (antibody, mouse IgG1, V domains shown, also called CNCM I-3731) VH: EVQLQQSGPELVKPGASVKISCKTSGYIFTAYTMHWVRQSLGESLDWIGGIKPNNGLANYNQKFKGKATLTVDKSSSTAYMDLRSLTSEDSAVYYCARSEITTEFDYWGQGTALTVSS VL: DIVLTQSPASLAVSLGQRATISCRASESVDSYANSFMHWYQQKPGQPPKLLIYRASNLESGIPARFSGSGSRTDFTLTINPVEADDVATYYCQQSKEDPLTFGSGTKLEMK", "values": [{"measurement": "binding result", "setting": "[6]", "value": "no binding"}, {"measurement": "basal effect on c-Met phosphorylation (antibody alone, A549 cells)", "setting": "[1]", "value": "< 20", "unit": "%"}, {"measurement": "inhibition of c-Met phosphorylation (phospho c-Met ELISA, A549 cells + HGF 100 ng/ml, antibody 30 µg/ml)", "setting": "[1]", "value": 54, "unit": "%"}, {"measurement": "IC50", "setting": "[2]", "value": 3, "unit": "nM"}, {"measurement": "inhibition of dimerization (BRET signal, CHO cells)", "setting": "[3]", "value": 32, "unit": "%"}]}
{"molecule": "227H1 murine monoclonal antibody (antibody, mouse IgG1, V domains shown, also called CNCM I-3732) VH: EVQLQQSGPELVKPGASMKISCKASGYSFTDYTLNWVKQSHGKTLEWIGLINPYNGGTTYNQKFKGKATLTVDKSSSTAYMELLSLTSEDSAVYYCAREEITKDFDFWGQGTTLTVSS VL: GIVLTQSPASLAVSLGQRATISCRVSESIDTYGNSFIHWYQQKPGQPPKLLIYRASNLESGIPARFSGSGSRTDFTLTINPVEADDSATYYCQQSNEDPFTFGSGTKLEMK", "values": [{"measurement": "binding result", "setting": "[6]", "value": "no binding"}, {"measurement": "basal effect on c-Met phosphorylation (antibody alone, A549 cells)", "setting": "[1]", "value": "< 20", "unit": "%"}, {"measurement": "inhibition of c-Met phosphorylation (phospho c-Met ELISA, A549 cells + HGF 100 ng/ml, antibody 30 µg/ml)", "setting": "[1]", "value": 65, "unit": "%"}, {"measurement": "IC50", "setting": "[2]", "value": 5.8, "unit": "nM"}, {"measurement": "inhibition of dimerization (BRET signal, CHO cells)", "setting": "[3]", "value": 52, "unit": "%"}]}
{"molecule": "Fab fragment of mAb 224G11 (papain cleavage) (Fab, V domains shown, also called 224G11 Fab) VH: EVQLQQSGPELVKPGASVKISCKTSGYIFTAYTMHWVRQSLGESLDWIGGIKPNNGLANYNQKFKGKATLTVDKSSSTAYMDLRSLTSEDSAVYYCARSEITTEFDYWGQGTALTVSS VL: DIVLTQSPASLAVSLGQRATISCRASESVDSYANSFMHWYQQKPGQPPKLLIYRASNLESGIPARFSGSGSRTDFTLTINPVEADDVATYYCQQSKEDPLTFGSGTKLEMK", "values": [{"measurement": "Half-Life", "setting": "[4]", "value": 2.5, "unit": "h"}, {"measurement": "Kd", "setting": "[4]", "value": 0.0348, "unit": "nM"}, {"measurement": "kon", "setting": "[4]", "value": "2.04e+06", "unit": "M⁻¹ s⁻¹"}, {"measurement": "koff", "setting": "[5]", "value": "7.79e-05", "unit": "s⁻¹"}]}
{"molecule": "223C4 murine monoclonal antibody (antibody, mouse IgG1, V domains shown, also called CNCM I-3786) VH: EVLLQQSGPELVKPGASVKIPCKASGYTFTDYNMDWVKQSHGMSLEWIGDINPNNGGTIFNQKFKGKATLTVDKSSSTAYMELRSLTSEDTAVYYCARGRYVGYYYAMDYWGQGTSVTVSS VL: DIQMTQSPASLSVSVGETVTITCRASENIYSNLAWYQQKQGKSPQLLVYAATNLVDGVPSRFSGSGSGTQYSLKINSLQSEDFGSYYCQHFWGPPYTFGGGTKLEIK", "values": [{"measurement": "binding result", "setting": "[6]", "value": "no binding"}, {"measurement": "basal effect on c-Met phosphorylation (antibody alone, A549 cells)", "setting": "[1]", "value": "< 20", "unit": "%"}, {"measurement": "inhibition of c-Met phosphorylation (phospho c-Met ELISA, A549 cells + HGF 100 ng/ml, antibody 30 µg/ml)", "setting": "[1]", "value": 80, "unit": "%"}, {"measurement": "IC50", "setting": "[2]", "value": 2.7, "unit": "nM"}, {"measurement": "inhibition of dimerization (BRET signal, CHO cells)", "setting": "[3]", "value": 55, "unit": "%"}]}
